# Source: PMC9674853, “Biasing the conformation of ELMO2 reveals that myoblast fusion can be exploited to improve muscle regeneration” (Nature Communications, 2022)
# T1: murine ELMO2 full-length, wild type (mouse, UniProt Q8BHL5 1-732)
# T1 construct: ELMO2, murine cDNA cloned into pGEX4T1; called full-length in the ITC methods; Thrombin was added to the glutathione eluates overnight before size exclusion; also called ELMO2 WT; WT ELMO2; source: E. coli BL21 codon+, purified (glutathione resin, thrombin, S75 size exclusion)
# T1 sequence (looked up): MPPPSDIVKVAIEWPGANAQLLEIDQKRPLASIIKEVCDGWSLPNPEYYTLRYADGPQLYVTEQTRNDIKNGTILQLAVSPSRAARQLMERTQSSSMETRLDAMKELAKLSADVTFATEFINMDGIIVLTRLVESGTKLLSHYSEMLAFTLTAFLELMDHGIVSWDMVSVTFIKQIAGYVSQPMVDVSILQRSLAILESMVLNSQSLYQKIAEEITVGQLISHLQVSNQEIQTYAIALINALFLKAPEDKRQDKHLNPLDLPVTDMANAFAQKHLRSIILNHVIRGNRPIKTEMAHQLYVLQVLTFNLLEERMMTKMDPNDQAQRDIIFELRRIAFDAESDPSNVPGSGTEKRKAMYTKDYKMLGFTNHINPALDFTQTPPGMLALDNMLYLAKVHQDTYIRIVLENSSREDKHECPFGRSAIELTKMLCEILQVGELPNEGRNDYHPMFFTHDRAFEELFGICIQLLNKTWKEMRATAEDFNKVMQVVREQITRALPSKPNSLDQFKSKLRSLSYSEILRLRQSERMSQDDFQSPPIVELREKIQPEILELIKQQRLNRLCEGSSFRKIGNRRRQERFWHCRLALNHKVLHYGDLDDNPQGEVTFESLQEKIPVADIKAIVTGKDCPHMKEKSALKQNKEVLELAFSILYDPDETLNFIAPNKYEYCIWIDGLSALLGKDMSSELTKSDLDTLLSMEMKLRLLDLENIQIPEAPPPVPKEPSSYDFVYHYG
# B1: human RHOG (residues 1-179) (domain or fragment)
# chain: not shown
# notes: RHOG, human, residues 1-179, cloned into pDEST17 with a thrombin cleavage site between the 6xHIS-tag and the GTPase; For NMR uniformly 15N-labelled (M9 medium with 15NH4Cl) and loaded with GMPPNP; For ITC made in LB; also called RHOG-GMPPNP; HIS-RHOG; source: E. coli BL21 codon+, purified (Ni-NTA, thrombin cleavage, S75 size exclusion)
# Molecular target: T1, murine ELMO2 full-length, wild type
# Test: ITC; 500 μM RHOG titrated into 40 μM Elmo2 full-length (WT or L43A); MicroCal ITC200, 25 °C; 20 mM Tris pH 7.5, 100 mM NaCl, 5 mM MgCl2, 1 mM DTT; one-site binding model
# Settings: both partners purified
binder,measurement,value
B1,Kd,10.3 µM
